Results from patent CN114075278A.
Where two headings read alike, the source gives them in different places.

Assays:
流感A抗原 [1] = biological target: 流感A抗原
流感A抗原 [2] = test: sandwich ELISA: antibody at 312.5 ng/ml captured on goat anti-mouse IgG, Flu-A antigen, HRP-labelled paired mAb
流感A抗原 [3] = test: sandwich ELISA: antibody at 2500 ng/ml captured on goat anti-mouse IgG, Flu-A antigen, HRP-labelled paired mAb
流感A抗原 [4] = test: sandwich ELISA: antibody at 1250 ng/ml captured on goat anti-mouse IgG, Flu-A antigen, HRP-labelled paired mAb
流感A抗原 [5] = test: sandwich ELISA: antibody at 625 ng/ml captured on goat anti-mouse IgG, Flu-A antigen, HRP-labelled paired mAb
流感A抗原 [6] = test: biolayer interferometry, AMC sensors, antibody immobilised, antigen in a dilution series
流感A抗原 [7] = test: sandwich ELISA: antibody at 5000 ng/ml captured on goat anti-mouse IgG, Flu-A antigen, HRP-labelled paired mAb

B1: 实施例1的抗Flu-A抗体(WT) (antibody, V domains shown)
VH: EVQLQQSGPELVKPGASVKISCKASGFSFSGYYLHWVRQSPLKSLEWIGRINPYNGGTTYNQDFKGKASLTVDKSSSTAYMELHSLTSEDSAVYYCARYSSVDAMDYWGQGTSVTVSS
VL: QIVLTQSPAIMSASLGERVTMTCTGSSSVLSSYLHWYQQKPGSSPKLWIYSSSNLASGVPARFSGSGSGTSYSLTISSMEAEDAATYYCQQWHRSPWTFGGGTKLEIKR
流感A抗原 [1]
  OD450 (ref 630 nm): > 1 OD
流感A抗原 [2]
  OD450 (ref 630 nm): 0.535 OD
流感A抗原 [3]
  OD450 (ref 630 nm): 1.39 OD
流感A抗原 [4]
  OD450 (ref 630 nm): 0.946 OD
流感A抗原 [5]
  OD450 (ref 630 nm): 0.754 OD
流感A抗原 [6]
  Kd: 40.5 nM
流感A抗原 [7]
  OD450 (ref 630 nm): 1.73 OD
